Laboratory results taken from paper PMC5449630.
Read-outs that look alike come from different tables or passages of the source.

Assays:
[1] = molecular target: T1, mPNKP D170A (Mus musculus (murine), UniProt Q9JLV6 1-522, D170A); experiment: EMSA
[2] = molecular target: T1, mPNKP D170A; experiment: EMSA; remark: listed apart in the source

T1 sequence (Q9JLV6 whole entry D170A): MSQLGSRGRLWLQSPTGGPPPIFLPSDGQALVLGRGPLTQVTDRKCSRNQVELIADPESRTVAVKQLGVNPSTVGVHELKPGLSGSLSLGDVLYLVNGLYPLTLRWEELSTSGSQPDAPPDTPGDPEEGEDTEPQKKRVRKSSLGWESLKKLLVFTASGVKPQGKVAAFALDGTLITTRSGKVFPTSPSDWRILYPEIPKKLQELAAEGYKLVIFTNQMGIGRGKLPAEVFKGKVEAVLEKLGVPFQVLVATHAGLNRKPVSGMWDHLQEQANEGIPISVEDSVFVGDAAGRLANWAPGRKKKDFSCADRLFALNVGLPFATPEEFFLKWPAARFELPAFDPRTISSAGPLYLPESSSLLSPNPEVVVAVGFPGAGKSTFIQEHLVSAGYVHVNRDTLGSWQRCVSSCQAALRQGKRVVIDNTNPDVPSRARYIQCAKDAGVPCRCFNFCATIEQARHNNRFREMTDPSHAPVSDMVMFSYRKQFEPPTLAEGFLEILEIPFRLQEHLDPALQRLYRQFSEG

Binder | binding result [1] | binding result [2]
FAM-20p/20c blunt duplex (dsDNA, 3'-phosphate on strand 1; 5'-phosphate on strand 2) DNA 1: TAGCACCTACCGATTGTATG DNA 2: CATACAATCGGTAGGTGCTA | binds | –
TAGCACCTACCGATTGTATG (ssDNA, 3'-phosphate) [FAM-20p ssDNA] | – | binds
FAM-20p/36c 5' overhang duplex (dsDNA, 3'-phosphate on strand 1; 5'-phosphate on strand 2) DNA 1: TAGCACCTACCGATTGTATG DNA 2: CGACACAAAAACGTATCATACAATCGGTAGGTGCTA | binds | –
